This passage reports IC50 of the inhibition of the APIase activity of DnaK (spectrophotometric Ala-Leu assay), relative intensity of the cross signal of the Ala-Tyr peptide bond (no addition: 3.50 ± 0.51) (relative intensity) and relative intensity of the cross signal of the Tyr-Ala peptide bond (no addition: 3.89 ± 0.32) (relative intensity) results from US7589065.

Data set [1] concerns the target DnaK (Escherichia coli) (UniProt P0A6Y8). The data set can be described thus: cell-based or functional assay.
Data set [2] relates to T1, Ala-Ala-Tyr-Ala-Ala.
T1 sequence: AAYAA

Sequence of DnaK (Escherichia coli) (P0A6Y8 2-638 limits assumed): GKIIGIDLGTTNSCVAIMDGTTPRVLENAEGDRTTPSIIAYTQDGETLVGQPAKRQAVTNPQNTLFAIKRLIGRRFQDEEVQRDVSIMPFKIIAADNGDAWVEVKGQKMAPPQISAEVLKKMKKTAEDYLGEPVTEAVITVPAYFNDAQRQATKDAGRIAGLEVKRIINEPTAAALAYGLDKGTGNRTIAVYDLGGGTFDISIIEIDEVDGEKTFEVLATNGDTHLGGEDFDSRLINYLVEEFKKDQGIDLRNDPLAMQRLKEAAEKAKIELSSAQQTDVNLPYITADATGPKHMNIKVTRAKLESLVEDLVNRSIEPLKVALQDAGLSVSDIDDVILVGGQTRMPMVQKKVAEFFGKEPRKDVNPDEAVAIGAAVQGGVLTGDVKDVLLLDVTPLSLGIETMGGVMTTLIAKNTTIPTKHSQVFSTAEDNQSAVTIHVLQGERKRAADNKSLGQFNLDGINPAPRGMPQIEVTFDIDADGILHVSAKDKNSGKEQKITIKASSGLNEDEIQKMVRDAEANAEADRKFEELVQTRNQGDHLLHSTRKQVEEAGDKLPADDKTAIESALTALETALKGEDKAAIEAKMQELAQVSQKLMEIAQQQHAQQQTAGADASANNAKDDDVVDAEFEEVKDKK

Substance substance P (peptide) showed an IC50 of the inhibition of the APIase activity of DnaK (spectrophotometric Ala-Leu assay) in data set [1] of 76 µM.
On to FKBP12, for which, in data set [2], the relative intensity of the cross signal of the Ala-Tyr peptide bond (no addition: 3.50 ± 0.51) (relative intensity) is 3.94 and the relative intensity of the cross signal of the Tyr-Ala peptide bond (no addition: 3.89 ± 0.32) (relative intensity) amounted to 2.68.
